Measurements reported in paper PMC6180126, “A guanine-flipping and sequestration mechanism for G-quadruplex unwinding by RecQ helicases”.

Assays:
[1] = molecular target: T1, CsRecQ catalytic core S245A (Cronobacter sakazakii, UniProt A7MQK9 1-521, S245A); assay: X-ray crystallography; discontinuous density in helicase/winged-helix cleft; 20 mM Tris-HCl pH 8.0, 100 mM NaCl, 1 mM MgCl2, 1 mM 2-mercaptoethanol, 0.1 mg/mL BSA, 4% glycerol; 5 nM DNA, 30 min at room temperature, read at 25 C (G4 folded in 10 mM Tris-HCl pH 8.0, 100 mM KCl); conditions: protein: recombinant; tags: N-terminal His tag removed (thrombin); antiparallel G4 with 12 nt 3' ssDNA tail; resolved (unwound) in 6CRM
[2] = molecular target: CsRecQ catalytic core (Cronobacter sakazakii, UniProt A7MQK9 1-521); assay: fluorescence anisotropy; apparent Kd; 1 mM Mg2+; 20 mM Tris-HCl pH 8.0, 100 mM NaCl, 1 mM MgCl2, 1 mM 2-mercaptoethanol, 0.1 mg/mL BSA, 4% glycerol; 5 nM DNA, 30 min at room temperature, read at 25 C (G4 folded in 10 mM Tris-HCl pH 8.0, 100 mM KCl); conditions: protein: recombinant, tags: N-terminal His tag removed (thrombin)
[3] = molecular target: EcRecQ catalytic core (Escherichia coli, UniProt P15043 1-523); assay: as above; conditions: protein: recombinant, tags: N-terminal His tag removed (thrombin)
[4] = molecular target: EcRecQ catalytic core D312A (Escherichia coli, UniProt P15043 1-523, D312A); assay: as above; conditions: protein: recombinant, tags: N-terminal His tag removed (thrombin)
[5] = molecular target: T1, CsRecQ catalytic core S245A; assay: fluorescence anisotropy; 1 mM Mg2+; Kd not determined (anisotropy decreased with time); 20 mM Tris-HCl pH 8.0, 100 mM NaCl, 1 mM MgCl2, 1 mM 2-mercaptoethanol, 0.1 mg/mL BSA, 4% glycerol; 5 nM DNA, 30 min at room temperature, read at 25 C (G4 folded in 10 mM Tris-HCl pH 8.0, 100 mM KCl); conditions: protein: recombinant; tags: N-terminal His tag removed (thrombin); label: 3' FAM; intramolecular G4 (folded in 100 mM KCl) with 12 nt 3' ssDNA tail
[6] = molecular target: T2, EcRecQ catalytic core S245A (Escherichia coli, UniProt P15043 1-523, S245A); assay: as above; conditions: protein: recombinant; tags: N-terminal His tag removed (thrombin); label: 3' FAM; intramolecular G4 (folded in 100 mM KCl) with 12 nt 3' ssDNA tail
[7] = molecular target: T1, CsRecQ catalytic core S245A; assay: fluorescence anisotropy; apparent Kd; 1 mM Mg2+; 20 mM Tris-HCl pH 8.0, 100 mM NaCl, 1 mM MgCl2, 1 mM 2-mercaptoethanol, 0.1 mg/mL BSA, 4% glycerol; 5 nM DNA, 30 min at room temperature, read at 25 C (G4 folded in 10 mM Tris-HCl pH 8.0, 100 mM KCl); conditions: protein: recombinant; tags: N-terminal His tag removed (thrombin); label: 3' FAM on Duplex 1; 18 bp, 3' overhang 12 nt on strand 1
[8] = molecular target: T2, EcRecQ catalytic core S245A; assay: as above; conditions: protein: recombinant; tags: N-terminal His tag removed (thrombin); label: 3' FAM on Duplex 1; 18 bp, 3' overhang 12 nt on strand 1
[9] = label: 3' FAM, intramolecular G4 (folded in 100 mM KCl) with 12 nt 3' ssDNA tail
[10] = label: 3' FAM on Duplex 1, 18 bp, 3' overhang 12 nt on strand 1

TTAGGGTTAGGGTTAGGGTTAGGGTCGGTGCCTTACT (structured_DNA) [G4 DNA]: binds [1].

TTAGGGTTAGGGTTAGGGTTAGGGTCGGTGCCTTACT (structured_DNA) [F-G4] was tested, and the Kd [2, 9] was 4.7 ± 0.9 µM, the Kd [3, 9] was 1000 ± 100 nM and the Kd [4, 9] was 330 ± 40 nM. TTAGGGTTAGGGTTAGGGTTAGGGTCGGTGCCTTACT (structured_DNA) [F-G4]: binds [5]; binds [6].

B1: Duplex 1/Duplex 2 (dsDNA)
DNA 1: GCGTGGGTAATTGTGCTTCAATGGACTGAC
DNA 2: AAGCACAATTACCCACGC
B1 gave a Kd [2, 10] of 2.9 ± 0.3 µM, a Kd [7] of 4 ± 1.6 µM and a Kd [8] of 2200 ± 200 nM. It also gave a Kd [3, 10] of 950 ± 60 nM and a Kd [4, 10] of 280 ± 20 nM.
